Experimental data published in US20160304622A1 (GENEFRONTIER, published 2016).

Legend:
[1] = target: T1, peptide #36 of the human ADAMTS4 peptide array (GGKYCEGRRTRF) (human); test: peptide array, HRP-labeled antibody
T1 construct: Immobilized on a peptide array
T1 peptide: GGKYCEGRRTRF
From the text: (§1) To be specific, as shown in the following Table, a peptide array consisting of peptides having the residue number of 12 amino acid residues and an offset of 3 amino acid residues was produced relative to a sequence covering the thrombospondin domain of human ADAMTS4.

[2] = target: T2, peptide #37 of the human ADAMTS4 peptide array (GKYCEGRRTRFR) (human); test: peptide array, HRP-labeled antibody
T2 construct: Immobilized on a peptide array
T2 peptide: GKYCEGRRTRFR
From the text: as §1

[3] = target: T3, peptide #38 of the human ADAMTS4 peptide array (KYCEGRRTRFRS) (human); test: peptide array, HRP-labeled antibody
T3 construct: Immobilized on a peptide array
T3 peptide: KYCEGRRTRFRS
From the text: as §1

[4] = target: T4, peptide #39 of the human ADAMTS4 peptide array (YCEGRRTRFRSC) (human); test: peptide array, HRP-labeled antibody
T4 construct: Immobilized on a peptide array
T4 peptide: YCEGRRTRFRSC
From the text: as §1

[5] = target: T5, recombinant human ADAMTS4 (residues Phe213-Cys685, C-terminal Strep-tag II) (human, UniProt O75173 213-685); test: SPR (BIAcore 3000), ADAMTS amine-coupled on CM5 chip, IgG1 injected
T5 construct: Made in HEK293T cells; metalloproteinase, disintegrin, thrombospondin and cysteine-rich domains; also called recombinant ADAMTS4; not shown: Strep-tag II at the C-terminal
T5 sequence: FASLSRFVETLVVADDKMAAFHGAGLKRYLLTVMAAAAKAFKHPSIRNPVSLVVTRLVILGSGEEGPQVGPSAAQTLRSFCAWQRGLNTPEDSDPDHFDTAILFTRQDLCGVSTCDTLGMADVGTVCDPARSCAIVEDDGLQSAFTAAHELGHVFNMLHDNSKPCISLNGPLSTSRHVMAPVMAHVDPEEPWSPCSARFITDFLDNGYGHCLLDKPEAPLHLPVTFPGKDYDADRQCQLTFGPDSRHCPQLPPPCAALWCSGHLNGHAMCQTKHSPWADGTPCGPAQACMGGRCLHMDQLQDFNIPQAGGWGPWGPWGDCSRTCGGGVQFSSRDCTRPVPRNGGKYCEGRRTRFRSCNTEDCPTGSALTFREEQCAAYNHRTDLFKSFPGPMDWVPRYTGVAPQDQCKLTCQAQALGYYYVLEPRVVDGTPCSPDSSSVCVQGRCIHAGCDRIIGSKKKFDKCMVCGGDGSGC
Method: (§2) Surface plasma resonance interaction (BIAcore) analysis Recombinant ADAMTS species were covalently immobilized via amine coupling on CM5 sensor chip flow chambers (GE Healthcare Life Sciences, Buckinghamshire, UK). […] The KD (the affinity) was calculated from the determined Kₐ and Kd values.

[6] = target: T6, Recombinant ADAMTS5 protein containing the metalloproteinase, disintegrin and thrombospondin domains … (human, UniProt Q9UNA0 262-622); test: as above
T6 construct: Bought from R&D Systems
T6 sequence: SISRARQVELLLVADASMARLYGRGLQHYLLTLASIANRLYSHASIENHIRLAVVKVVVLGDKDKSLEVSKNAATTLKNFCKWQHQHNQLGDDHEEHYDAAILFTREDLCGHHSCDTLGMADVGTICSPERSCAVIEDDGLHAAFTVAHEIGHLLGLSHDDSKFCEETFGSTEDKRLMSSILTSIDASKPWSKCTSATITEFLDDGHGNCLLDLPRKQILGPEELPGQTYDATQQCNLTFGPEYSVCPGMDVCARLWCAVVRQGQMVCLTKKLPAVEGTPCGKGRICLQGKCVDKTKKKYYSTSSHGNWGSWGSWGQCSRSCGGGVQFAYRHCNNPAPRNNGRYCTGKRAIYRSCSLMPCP
Method: as §2

B1: human anti-ADAMTS antibody (IgG1; clone 237-53) (antibody, V domains shown)
VH: QVQLVQSGAEVKKPGSSVKVSCKASGGTFSSFAISWVRQAPGQGLEWMGGIFPIFGQANYAQKFQGRVTITADESTSTAYMELSSLRSEDTAVYYCARFSDWWEWQMDYWGQGTLVTVSS
VL: DIVMTQSPDSLAVSLGERATINCRSSQSILYSSNNNYLAWYQQKPGQPPKLLIHTASARESGVPDRFSGSGSGTDFTLTISSLQAEDVAVYYCQQYYSVSITFGQGTKVEIKR
notes: HRP-labeled in the peptide array
binding result [1]: binds | binding result [2]: binds | binding result [3]: binds | binding result [4]: binds | Kd [5]: 11.7 nM | Kd [6]: 1.46 nM
